# Assay results reported in paper PMC2959088.
# Molecular target: human cathepsin L (human)
# Test: enzyme inhibition assay (residual activity on the fluorogenic substrate Z-Phe-Arg-MCA); cathepsin B or L (0.3 nM) incubated 5 min at 37°C with varied inhibitor in 100 mM sodium acetate pH 5.5, 2.5 mM DTT; substrate 0.01 mM; triplicate; Ki(app) by non linear regression (GraFit), Ki by Morrison's procedure
binder,measurement,value
Oryzacystatin-1 (natural protein) MSSDGGPVLGGVEPVGNENDLHLVDLARFAVTEHNKKANSLLEFEKLVSVKQQVVAGTLYYFTIEVKEGDAKKLYEAKVWEKPWMDFKELQEFKPVDASANA,Ki,730 pM
